The record followed here is publication PMC10978848, “Insights into the dual nature of αB-crystallin chaperone activity from the p.P39L mutant at the N-terminal region” (Scientific Reports, 2024).

The data set deals with the molecule itself. Description: AUC; sedimentation velocity, 40,000 rpm, 20 °C, absorbance at 280 nm, buffer A (50 mM sodium phosphate, pH 7.4); masses from c(M) after Schuck; size of the oligomer.

Residue numbers refer to the chain shown, from its start. Names and notes keep the numbering of the source.

B1: human αB-crystallin, wild-type (natural protein, UniProt P02511 1-175, looked up)
chain: MDIAIHHPWIRRPFFPFHSPSRLFDQFFGEHLLESDLFPTSTSLSPFYLRPPSFLRAPSWFDTGLSEMRLEKDRFSVNLDVKHFSPEELKVKVLGDVIEVHGKHEERQDEHGFISREFHRKYRIPADVDPLTITSSLSSDGVLTVNGPRKQVSGPERTIPITREEKPAVTAAPKK
notes: human αB-crystallin (CRYAB, HspB5); It names no tag; also called CRYAB; HspB5; source: E. coli, IPTG-induced, purified (anion exchange, DEAE cellulose); copies: 24
For orientation: stoichiometry N means the number of molecules, sites or subunits per partner or assembly. For B1, the “stoichiometry N” value stood at 24 subunits.

B2: human αB-crystallin p.P39L mutant (natural protein, UniProt P02511 1-175, looked up)
chain: B1 chain with P39L
notes: human αB-crystallin (CRYAB, HspB5) with the variant p.P39L, which was found in a patient; It names no tag; also called p.P39L αB-Cry; mutant αB-Cry; source: E. coli, IPTG-induced, purified (anion exchange, DEAE cellulose); copies: 48
With B2, the “stoichiometry N” value stood at 48 subunits.
